Source: patent US20150218243A1 (SAMSUNG ELECTRONICS, published 2015)

Target: T1, recombinant full length Human Cdk6 (amino acids 1-326) with N-terminal His tag (Abcam ab84717) (human, UniProt Q00534 1-326)
T1 construct: range 1-326; Bought protein, coated on the ELISA plate at 1 ug/ml; also called Cdk6 protein; not shown: N-terminal His tag of the bought protein
Experiment: ELISA, Cdk6 coated on plate, p15 variant at 0-10 uM, anti-GST primary and HRP secondary antibody, absorbance 450 nm

T1 sequence (Q00534 whole entry, the tested form may be a part): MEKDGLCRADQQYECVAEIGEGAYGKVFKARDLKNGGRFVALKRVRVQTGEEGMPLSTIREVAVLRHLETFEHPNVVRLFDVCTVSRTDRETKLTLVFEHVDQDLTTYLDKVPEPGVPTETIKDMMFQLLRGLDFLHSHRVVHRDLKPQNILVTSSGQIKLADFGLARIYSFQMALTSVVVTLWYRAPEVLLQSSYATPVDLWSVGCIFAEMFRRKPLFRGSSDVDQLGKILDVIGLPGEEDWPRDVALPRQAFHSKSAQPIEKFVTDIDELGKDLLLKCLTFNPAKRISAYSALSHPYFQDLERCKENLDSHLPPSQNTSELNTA

binding result: binds
B1: human p15 protein variant (SEQ ID NO: 2) (other)
chain: MREENKGMPSGGGSDEGLASAAARGLVEKVRQLLEAGADPNGVNRFGRRAIQVMMMGSARVAELLLKHGAEPNSADPATSTRPVHDAAREGFLDTLVVLHRAGARLDARDAWGRTPVDLAEERGHRDVAGYLRTATGD
notes: Expressed in E. coli from pET21b (NdeI/XhoI) and purified on a HisTrap column and by SEC; also called mt p15; p15INK4b variant
